The numbers were not newly measured in PMC2892782, which cites them from elsewhere.

This data set addresses Lys41 (UniProt position 67, TKDRCKPVNTF). The data set is described as follows: NMR.

Take “Ribonuclease A (bovine pancreatic ribonuclease) (Bos taurus)”: the pKa is given as 8.6-9.1.
